{
  "source": "the supplement of paper PMC10567573",
  "parents": {"B1": {"name": "TRIB1 (parent)", "chain": "EIGTSDQIVPEYQEDSDISSFFC"}},
  "data": [
    {"variants_of": "B1", "experiment": "protein stability index of a GFP-peptide fusion (GPS, HEK-293T) (PSI 1-6); higher = more stable", "conditions": "c terminus: native", "values": [
      {"variant": "EIGTSDQIVPEYQELSDISSFFC", "protein stability index": 2.18},
      {"variant": "EIGTSDQIVPEYQESSDISSFFC", "protein stability index": 3.33},
      {"variant": "EIGTSDQIVPEYQERSDISSFFC", "protein stability index": 4.24},
      {"variant": "EIGTSDQIVPEYQEPSDISSFFC", "protein stability index": 3.02},
      {"variant": "EIGTSDQIVPEYQEWSDISSFFC", "protein stability index": 2.9},
      {"variant": "EIGTSDQIVPEYQEMSDISSFFC", "protein stability index": 2.67},
      {"variant": "EIGTSDQIVPEYQENSDISSFFC", "protein stability index": 3.86},
      {"variant": "EIGTSDQIVPEYQEVSDISSFFC", "protein stability index": 2.81},
      {"variant": "EIGTSDQIVPEYQETSDISSFFC", "protein stability index": 3.4},
      {"variant": "EIGTSDQIVPEYQEYSDISSFFC", "protein stability index": 2.48},
      {"variant": "EIGTSDQIVPEYQEQSDISSFFC", "protein stability index": 2.92},
      {"variant": "EIGTSDQIVPEYQEDSDISCFFC", "protein stability index": 2.49},
      {"variant": "EIGTSDQIVPEYQEDSDISKFFC", "protein stability index": 4.34},
      {"variant": "EIGTSDQIVPEYQEDSDISLFFC", "protein stability index": 1.79},
      {"variant": "EIGTSDQIVPEYQEDSDISFFFC", "protein stability index": 2.81},
      {"variant": "EIGTSDQIVPEYQEDSDISIFFC", "protein stability index": 2.32},
      {"variant": "EIGTSDQIVPEYQEDSDISEFFC", "protein stability index": 2.37},
      {"variant": "EIGTSDQIVPEYQEDSDISDFFC", "protein stability index": 2.3},
      {"variant": "EIGTSDQIVPEYQEDSDISHFFC", "protein stability index": 3.57},
      {"variant": "EIGTSDQIVPEYQEDSDISGFFC", "protein stability index": 3.23},
      {"variant": "EIGTSDQIVPEYQEDSDISAFFC", "protein stability index": 3.2},
      {"variant": "EIGTSDQIVPEYQEDRDISSFFC", "protein stability index": 4.11},
      {"variant": "EIGTSDQIVPEYQEDWDISSFFC", "protein stability index": 2.27},
      {"variant": "EIGTSDQIVPEYQEDTDISSFFC", "protein stability index": 2.56},
      {"variant": "EIGTSDQIVPEYQEDMDISSFFC", "protein stability index": 2.45},
      {"variant": "EIGTSDQIVPEYQEDPDISSFFC", "protein stability index": 1.86},
      {"variant": "EIGTSDQIVPEYQEDDDISSFFC", "protein stability index": 2.15},
      {"variant": "EIGTSDQIVPEYQEDLDISSFFC", "protein stability index": 2.65},
      {"variant": "EIGTSDQIVPEYQEDNDISSFFC", "protein stability index": 2.68},
      {"variant": "EIGTSDQIVPEYQEDEDISSFFC", "protein stability index": 1.75},
      {"variant": "EIGTSDQIVPEYQEDCDISSFFC", "protein stability index": 2.41},
      {"variant": "EIGTSDQIVPEYQEDVDISSFFC", "protein stability index": 3.02},
      {"variant": "EIGTSDQIVPEYQEDQDISSFFC", "protein stability index": 3.32},
      {"variant": "EIGTSDQIVPEYQEDADISSFFC", "protein stability index": 3.03},
      {"variant": "EIGTSDQIVPEYQEDGDISSFFC", "protein stability index": 2.9},
      {"variant": "EIGTSDQIVPEYQEDFDISSFFC", "protein stability index": 2.6},
      {"variant": "EIGTSDQIVPEYQEDYDISSFFC", "protein stability index": 2.28},
      {"variant": "EIGTSDQIVPEYQEDIDISSFFC", "protein stability index": 2.04},
      {"variant": "EIGTSDQIVPEYQEDHDISSFFC", "protein stability index": 2.68},
      {"variant": "EIGTSDQIVPEYQEDKDISSFFC", "protein stability index": 3.5},
      {"variant": "EIGTSDQIVPEYQEDSDINSFFC", "protein stability index": 2.92},
      {"variant": "EIGTSDQIVPEYQEDSDITSFFC", "protein stability index": 2.35},
      {"variant": "EIGTSDQIVPEYQEDSDIQSFFC", "protein stability index": 3.48},
      {"variant": "EIGTSDQIVPEYQEDSDIPSFFC", "protein stability index": 2.94},
      {"variant": "EIGTSDQIVPEYQEDSDIESFFC", "protein stability index": 2.83},
      {"variant": "EIGTSDQIVPEYQEDSDIASFFC", "protein stability index": 3.16},
      {"variant": "EIGTSDQIVPEYQEDSDICSFFC", "protein stability index": 2.38},
      {"variant": "EIGTSDQIVPEYQEDSDIMSFFC", "protein stability index": 1.75},
      {"variant": "EIGTSDQIVPEYQEDSDIRSFFC", "protein stability index": 3.83},
      {"variant": "EIGTSDQIVPEYQEDSDIWSFFC", "protein stability index": 1.56},
      {"variant": "EIGTSDQIVPEYQEDSDIYSFFC", "protein stability index": 1.84},
      {"variant": "EIGTSDQIVPEYQEDSDIKSFFC", "protein stability index": 4.21},
      {"variant": "EIGTSDQIVPEYQEDSDIVSFFC", "protein stability index": 2.72},
      {"variant": "EIGTSDQIVPEYQEDSDIGSFFC", "protein stability index": 2.05},
      {"variant": "EIGTSDQIVPEYQEDSDIDSFFC", "protein stability index": 2.67},
      {"variant": "EIGTSDQIVPEYQEDSDIISFFC", "protein stability index": 1.83},
      {"variant": "EIGTSDQIVPEYQEDSDILSFFC", "protein stability index": 2.32},
      {"variant": "EIGTSDQIVPEYQEDSDIHSFFC", "protein stability index": 2.89},
      {"variant": "EIGTSDQIVPEYQEDSDIFSFFC", "protein stability index": 1.99},
      {"variant": "EIGTSDQIVPEYQEDSSISSFFC", "protein stability index": 3.13},
      {"variant": "EIGTSDQIVPEYQEDSLISSFFC", "protein stability index": 3.2},
      {"variant": "EIGTSDQIVPEYQEDSTISSFFC", "protein stability index": 3.29},
      {"variant": "EIGTSDQIVPEYQEDSRISSFFC", "protein stability index": 3.48},
      {"variant": "EIGTSDQIVPEYQEDSCISSFFC", "protein stability index": 2.92},
      {"variant": "EIGTSDQIVPEYQEDSIISSFFC", "protein stability index": 3.28},
      {"variant": "EIGTSDQIVPEYQEDSFISSFFC", "protein stability index": 3.2},
      {"variant": "EIGTSDQIVPEYQEDSNISSFFC", "protein stability index": 3.26},
      {"variant": "EIGTSDQIVPEYQEDSVISSFFC", "protein stability index": 2.87},
      {"variant": "EIGTSDQIVPEYQEDSQISSFFC", "protein stability index": 2.94},
      {"variant": "EIGTSDQIVPEYQEDSGISSFFC", "protein stability index": 4.13},
      {"variant": "EIGTSDQIVPEYQEDSPISSFFC", "protein stability index": 3.12},
      {"variant": "EIGTSDQIVPEYQEDSWISSFFC", "protein stability index": 2.42},
      {"variant": "EIGTSDQIVPEYQEDSKISSFFC", "protein stability index": 4.29},
      {"variant": "EIGTSDQIVPEYQEDSAISSFFC", "protein stability index": 3.21},
      {"variant": "EIGTSDQIVPEYQEDSYISSFFC", "protein stability index": 2.99},
      {"variant": "EIGTSDQIVPEYQEDSEISSFFC", "protein stability index": 2.61},
      {"variant": "EIGTSDQIVPEYQEDSHISSFFC", "protein stability index": 3.47},
      {"variant": "EIGTSDQIVPEYQEDSMISSFFC", "protein stability index": 3.16},
      {"variant": "EIGTSDQIVPEYQEDSDGSSFFC", "protein stability index": 3.6},
      {"variant": "EIGTSDQIVPEYQEDSDQSSFFC", "protein stability index": 3.9},
      {"variant": "EIGTSDQIVPEYQEDSDHSSFFC", "protein stability index": 3.69},
      {"variant": "EIGTSDQIVPEYQEDSDMSSFFC", "protein stability index": 3.29},
      {"variant": "EIGTSDQIVPEYQEDSDDSSFFC", "protein stability index": 3.36},
      {"variant": "EIGTSDQIVPEYQEDSDSSSFFC", "protein stability index": 3.64},
      {"variant": "EIGTSDQIVPEYQEDSDVSSFFC", "protein stability index": 3.08},
      {"variant": "EIGTSDQIVPEYQEDSDYSSFFC", "protein stability index": 3.25},
      {"variant": "EIGTSDQIVPEYQEDSDASSFFC", "protein stability index": 3.4},
      {"variant": "EIGTSDQIVPEYQEDSDFSSFFC", "protein stability index": 2.91},
      {"variant": "EIGTSDQIVPEYQEDSDNSSFFC", "protein stability index": 3.75},
      {"variant": "EIGTSDQIVPEYQEDSDCSSFFC", "protein stability index": 3.16},
      {"variant": "EIGTSDQIVPEYQEDSDKSSFFC", "protein stability index": 4.39},
      {"variant": "EIGTSDQIVPEYQEDSDRSSFFC", "protein stability index": 4.26},
      {"variant": "EIGTSDQIVPEYQEDSDPSSFFC", "protein stability index": 2.88},
      {"variant": "EIGTSDQIVPEYQEDSDESSFFC", "protein stability index": 2.69},
      {"variant": "EIGTSDQIVPEYQEDSDLSSFFC", "protein stability index": 2.92},
      {"variant": "EIGTSDQIVPEYQEDSDWSSFFC", "protein stability index": 2.41},
      {"variant": "EIGTSDQIVPEYQEDSDTSSFFC", "protein stability index": 3.64}
    ]}
  ]
}
